Assay results published in patent US20030186419A1 (published 2003).

Target: T1, MASP-1 (MBL-associated serine protease 1) (human, UniProt P48740 20-699)
T1 sequence (looked up): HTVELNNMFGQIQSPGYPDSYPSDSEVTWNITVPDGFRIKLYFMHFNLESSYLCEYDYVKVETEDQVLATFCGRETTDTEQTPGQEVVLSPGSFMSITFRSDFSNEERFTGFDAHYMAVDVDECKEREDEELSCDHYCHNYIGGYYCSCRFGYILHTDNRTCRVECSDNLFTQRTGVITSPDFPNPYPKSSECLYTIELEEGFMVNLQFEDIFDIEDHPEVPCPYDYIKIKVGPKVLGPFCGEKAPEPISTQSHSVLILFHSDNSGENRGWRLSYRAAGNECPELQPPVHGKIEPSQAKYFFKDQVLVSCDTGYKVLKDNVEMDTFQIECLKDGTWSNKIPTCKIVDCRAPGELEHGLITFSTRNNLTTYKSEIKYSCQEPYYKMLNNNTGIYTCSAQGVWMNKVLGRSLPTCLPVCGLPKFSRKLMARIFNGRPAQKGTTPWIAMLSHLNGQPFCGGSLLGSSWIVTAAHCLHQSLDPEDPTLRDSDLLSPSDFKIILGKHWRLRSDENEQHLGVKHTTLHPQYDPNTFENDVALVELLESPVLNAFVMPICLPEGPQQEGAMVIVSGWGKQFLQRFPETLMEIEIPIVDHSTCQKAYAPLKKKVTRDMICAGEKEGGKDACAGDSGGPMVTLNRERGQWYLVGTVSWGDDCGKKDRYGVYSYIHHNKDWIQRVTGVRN
Assay: co-capture on anti-MASP-1-coated wells, eluate blotted with anti-pMASP-3

B1: mannan binding lectin-associated serine protease 3 (MASP-3), natural protein from human plasma/serum (enzyme)
chain: HTVELNNMFGQIQSPGYPDSYPSDSEVTWNITVPDGFRIKLYFMHFNLESSYLCEYDYVKVETEDQVLATFCGRETTDTEQTPGQEVVLSPGSFMSITFRSDFSNEERFTGFDAHYMAVDVDECKEREDEELSCDHYCHNYIGGYYCSCRFGYILHTDNRTCRVECSDNLFTQRTGVITSPDFPNPYPKSSECLYTIELEEGFMVNLQFEDIFDIQDHPEVPCPYDYIKIKVGPKVLGPFCGEKAPEPISTQSHSVLILFHSDNSAENRGWRLSYRAAGNECPELQPPVHGKIEPSQAKYFFKDQVLVSCDTGYKVLKDNVEMDTFQIECLKDGTWSNKIPTCKIVDCRAPGELEHGLITFSTRNNLTTYKSEIKYSCQEPYYKMLNNNTGIYTCSAQGVWMNKVLGRSLPTCLPECGQPSRSLPSLVKRIIGGRNAEPGLFPWQALIVVEDTSRVPNDKWFGSGALLSASWILTAAHVLRSQRRDTTVIPVSKEHVTVYLGLHDVRDKSGAVNSSAARVVLHPDFNIQNYNHDIALVQLQEPVPLGPHVMPVCLPRLEPEGPAPHMLGLVAGWGISNPNVTVDEIISSGTRTLSDVLQYVKLPVVPHAECKTSYESRSGNYSVTENMFCAGYYEGGKDTCLGDSGGAFVIFDDLSQRWVVQGLVSWGGPEECGSKQVYGVYTKVSNYVDWVWEQMGLPQSVVEPQVER
notes: Natural protein in lectin preparations, MBL complexes or serum; On reducing blots only the B chain is seen; also called MBL-associated serine protease-3; lectin associated serine protease 110
B1: no binding.
